Test results as given in the supplement of paper PMC10126150.
± gives the standard deviation of the averaged measurements.

test system: ATP; experiment: switch fluorescence ratio, 500 uM ATP over buffer (Cy3 cluster intensity, sum of 5 cycles each) (fold (ratio)); higher = stronger signal-on switching upon ATP binding; sequences stand for … in TCGTCGGCAGCGTCAGATGTGTATAAGAGACAGTTTTTTTTTTTTTTTTTTTTTTTTT…TC; details: aptamer strand: ATP DNA aptamer (quencher-CACCTGGGGGAGTATTGCGGAGGAAGG + anchor), 100 nM annealed; ATP concentration: 500 uM
Outline: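 Values give the fluorescence ratio for each switch-domain sequence, averaged from per-cluster ratios of summed target-cycle to summed buffer-cycle Cy3 intensity. The Cy3-labelled switching-strand clusters sat on a modified Illumina MiSeq flow-cell, were annealed to 100 nM quencher-labelled ATP aptamer, and were imaged in selection buffer, then after 15 min with 500 uM ATP at 22 °C. Five cycles ran with NaOH stripping and re-annealing between them, and clusters outside 100-1000 RFU were excluded.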
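Further: ATP exposure 15 min at 22 °C before imaging.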

For TGGATATTTT, which switch fluorescence ratio is on record?
The switch fluorescence ratio was 0.993 ± 0.044.

TGGATCAATT was tested. Which switch fluorescence ratio did it give?
Its switch fluorescence ratio is 1.01 ± 0.011.

With TGGATCAGTG as the sequence, how does the switch fluorescence ratio read?
Its switch fluorescence ratio is 0.993 ± 0.046.

With TGGATGAAGA as the sequence, how does the switch fluorescence ratio read?
The switch fluorescence ratio was 1.025 ± 0.0078.

Which switch fluorescence ratio does the source give for TGGATGGCGT here?
The switch fluorescence ratio was 1.101 ± 0.0046.

For TGGATGTCAT, which switch fluorescence ratio is on record?
The switch fluorescence ratio was 1.07 ± 0.059.

How did the switch fluorescence ratio turn out when TGGATTAAGG was run?
The switch fluorescence ratio was 1.03 ± 0.033.

With TGGATTGGGC as the sequence, how does the switch fluorescence ratio read?
The switch fluorescence ratio was 0.973 ± 0.038.

Which switch fluorescence ratio does the source give for TGGATTGTTT here?
Its switch fluorescence ratio is 0.994 ± 0.03.

How did the switch fluorescence ratio turn out when TGGCAAAGTT was run?
The switch fluorescence ratio was 0.985 ± 0.013.

How did the switch fluorescence ratio turn out when TGGCAATGAA was run?
Its switch fluorescence ratio is 1.28 ± 0.35.

TGGCACAGAG was tested. Which switch fluorescence ratio did it give?
Its switch fluorescence ratio is 1 ± 0.022.

Which switch fluorescence ratio does the source give for TGGCAGCAGT here?
The switch fluorescence ratio was 1.09 ± 0.019.

For TGGCAGTTTT, which switch fluorescence ratio is on record?
The switch fluorescence ratio was 1.02 ± 0.013.

With TGGCATCTGT as the sequence, how does the switch fluorescence ratio read?
The switch fluorescence ratio was 0.972 ± 0.03.

For TGGCATTTCC, which switch fluorescence ratio is on record?
Its switch fluorescence ratio is 1.18 ± 0.11.

Which switch fluorescence ratio does the source give for TGGCCCTTGG here?
The switch fluorescence ratio was 1 ± 0.054.

TGGCCGATGG was tested. Which switch fluorescence ratio did it give?
The switch fluorescence ratio was 0.986 ± 0.052.

With TGGCCGGGAT as the sequence, how does the switch fluorescence ratio read?
Its switch fluorescence ratio is 0.996 ± 0.021.

For TGGCCGTGGC, which switch fluorescence ratio is on record?
Its switch fluorescence ratio is 1.03 ± 0.05.

TGGCCTATCC was tested. Which switch fluorescence ratio did it give?
Its switch fluorescence ratio is 1.17 ± 0.04.

Which switch fluorescence ratio does the source give for TGGCGAATTA here?
Its switch fluorescence ratio is 0.978 ± 0.026.

How did the switch fluorescence ratio turn out when TGGCGCACGG was run?
Its switch fluorescence ratio is 0.953 ± 0.017.

With TGGCGCATAA as the sequence, how does the switch fluorescence ratio read?
The switch fluorescence ratio was 1.25 ± 0.059.

TGGCGCCATT was tested. Which switch fluorescence ratio did it give?
The switch fluorescence ratio was 1 ± 0.072.

With TGGCGCCGGT as the sequence, how does the switch fluorescence ratio read?
The switch fluorescence ratio was 0.995 ± 0.01.

Which switch fluorescence ratio does the source give for TGGCGGAACA here?
The switch fluorescence ratio was 1.02 ± 0.017.

TGGCGGATAT was tested. Which switch fluorescence ratio did it give?
The switch fluorescence ratio was 1.06 ± 0.1.

How did the switch fluorescence ratio turn out when TGGCGGTTAG was run?
Its switch fluorescence ratio is 1.01 ± 0.019.

How did the switch fluorescence ratio turn out when TGGCGTCTGA was run?
The switch fluorescence ratio was 1 ± 0.013.

With TGGCTAGGAC as the sequence, how does the switch fluorescence ratio read?
The switch fluorescence ratio was 1.01 ± 0.04.

Which switch fluorescence ratio does the source give for TGGCTATTGT here?
The switch fluorescence ratio was 0.9824 ± 0.0044.

With TGGCTCTGAG as the sequence, how does the switch fluorescence ratio read?
The switch fluorescence ratio was 0.9973 ± 0.0028.

How did the switch fluorescence ratio turn out when TGGCTGACTT was run?
The switch fluorescence ratio was 1.01 ± 0.016.

How did the switch fluorescence ratio turn out when TGGCTGTGGG was run?
Its switch fluorescence ratio is 0.991 ± 0.016.

For TGGCTTAGGG, which switch fluorescence ratio is on record?
The switch fluorescence ratio was 0.98975 ± 0.00065.

For TGGCTTCGGC, which switch fluorescence ratio is on record?
The switch fluorescence ratio was 0.9979 ± 0.0053.

For TGGCTTGAGT, which switch fluorescence ratio is on record?
Its switch fluorescence ratio is 1.12 ± 0.19.

For TGGCTTGCG, which switch fluorescence ratio is on record?
The switch fluorescence ratio was 1.01 ± 0.04.

How did the switch fluorescence ratio turn out when TGGGAAAAAT was run?
The switch fluorescence ratio was 0.994 ± 0.04.

How did the switch fluorescence ratio turn out when TGGGAAAGTC was run?
The switch fluorescence ratio was 0.993 ± 0.026.

For TGGGAAATAT, which switch fluorescence ratio is on record?
Its switch fluorescence ratio is 0.9726 ± 0.0072.

How did the switch fluorescence ratio turn out when TGGGAAATT was run?
Its switch fluorescence ratio is 1.19 ± 0.19.

With TGGGAACGAT as the sequence, how does the switch fluorescence ratio read?
The switch fluorescence ratio was 1.011 ± 0.0034.

For TGGGAAGAGG, which switch fluorescence ratio is on record?
The switch fluorescence ratio was 1.01 ± 0.026.

Which switch fluorescence ratio does the source give for TGGGAAGGCG here?
The switch fluorescence ratio was 0.983 ± 0.012.

For TGGGAAGGTG, which switch fluorescence ratio is on record?
The switch fluorescence ratio was 1.7 ± 0.33.

How did the switch fluorescence ratio turn out when TGGGAAGTCA was run?
Its switch fluorescence ratio is 0.991 ± 0.012.

TGGGAAGTGT was tested. Which switch fluorescence ratio did it give?
Its switch fluorescence ratio is 0.9621 ± 0.0013.

How did the switch fluorescence ratio turn out when TGGGAAGTTC was run?
Its switch fluorescence ratio is 1.04 ± 0.046.

With TGGGAAGTTT as the sequence, how does the switch fluorescence ratio read?
The switch fluorescence ratio was 0.978 ± 0.013.

With TGGGAATTGG as the sequence, how does the switch fluorescence ratio read?
Its switch fluorescence ratio is 0.981 ± 0.012.

TGGGACAGGC was tested. Which switch fluorescence ratio did it give?
Its switch fluorescence ratio is 0.965 ± 0.089.

With TGGGACCGTC as the sequence, how does the switch fluorescence ratio read?
Its switch fluorescence ratio is 1.052 ± 0.0042.

With TGGGACGCCG as the sequence, how does the switch fluorescence ratio read?
Its switch fluorescence ratio is 1.01 ± 0.015.

How did the switch fluorescence ratio turn out when TGGGACGTTA was run?
Its switch fluorescence ratio is 1.04 ± 0.036.

Which switch fluorescence ratio does the source give for TGGGACGTTG here?
The switch fluorescence ratio was 0.995 ± 0.014.

TGGGACTAGT was tested. Which switch fluorescence ratio did it give?
Its switch fluorescence ratio is 1.02 ± 0.059.

TGGGAGAAGG was tested. Which switch fluorescence ratio did it give?
Its switch fluorescence ratio is 1.02 ± 0.057.

For TGGGAGAGCG, which switch fluorescence ratio is on record?
The switch fluorescence ratio was 0.973 ± 0.016.

How did the switch fluorescence ratio turn out when TGGGAGGTAC was run?
The switch fluorescence ratio was 1.24 ± 0.3.

For TGGGAGGTTA, which switch fluorescence ratio is on record?
The switch fluorescence ratio was 0.965 ± 0.025.

For TGGGAGGTTT, which switch fluorescence ratio is on record?
The switch fluorescence ratio was 1.05 ± 0.18.

With TGGGAGTTAG as the sequence, how does the switch fluorescence ratio read?
The switch fluorescence ratio was 0.943 ± 0.03.

For TGGGATAATG, which switch fluorescence ratio is on record?
Its switch fluorescence ratio is 1.012 ± 0.0042.

Which switch fluorescence ratio does the source give for TGGGATACGA here?
The switch fluorescence ratio was 4.47 ± 0.82.

For TGGGATAGAT, which switch fluorescence ratio is on record?
The switch fluorescence ratio was 0.996 ± 0.027.

For TGGGATAGGC, which switch fluorescence ratio is on record?
The switch fluorescence ratio was 0.991 ± 0.032.

TGGGATCGCC was tested. Which switch fluorescence ratio did it give?
The switch fluorescence ratio was 1.02 ± 0.028.

For TGGGATGATG, which switch fluorescence ratio is on record?
The switch fluorescence ratio was 1.008 ± 0.0095.

TGGGATGCAA was tested. Which switch fluorescence ratio did it give?
Its switch fluorescence ratio is 1.04 ± 0.035.

TGGGATGCAT was tested. Which switch fluorescence ratio did it give?
The switch fluorescence ratio was 0.991 ± 0.034.

How did the switch fluorescence ratio turn out when TGGGATGTGG was run?
The switch fluorescence ratio was 0.986 ± 0.019.

How did the switch fluorescence ratio turn out when TGGGATGTTC was run?
The switch fluorescence ratio was 0.989 ± 0.031.

Which switch fluorescence ratio does the source give for TGGGATTATG here?
Its switch fluorescence ratio is 0.976 ± 0.0098.

How did the switch fluorescence ratio turn out when TGGGATTTGG was run?
Its switch fluorescence ratio is 0.98432 ± 0.00062.

For TGGGATTTGT, which switch fluorescence ratio is on record?
Its switch fluorescence ratio is 0.9881 ± 0.0029.

For TGGGCAACTC, which switch fluorescence ratio is on record?
Its switch fluorescence ratio is 1.06 ± 0.021.

Which switch fluorescence ratio does the source give for TGGGCAAGTT here?
Its switch fluorescence ratio is 1.04 ± 0.044.

How did the switch fluorescence ratio turn out when TGGGCCAGTT was run?
Its switch fluorescence ratio is 0.981 ± 0.035.

With TGGGCCCATT as the sequence, how does the switch fluorescence ratio read?
Its switch fluorescence ratio is 1.02 ± 0.076.

With TGGGCCGGGG as the sequence, how does the switch fluorescence ratio read?
Its switch fluorescence ratio is 0.989 ± 0.019.

With TGGGCCGGTG as the sequence, how does the switch fluorescence ratio read?
Its switch fluorescence ratio is 1.04 ± 0.05.

For TGGGCCGGTT, which switch fluorescence ratio is on record?
The switch fluorescence ratio was 1.05 ± 0.099.

TGGGCCTATT was tested. Which switch fluorescence ratio did it give?
The switch fluorescence ratio was 0.976 ± 0.063.

How did the switch fluorescence ratio turn out when TGGGCCTCCA was run?
Its switch fluorescence ratio is 1 ± 0.036.

Which switch fluorescence ratio does the source give for TGGGCGAAGG here?
Its switch fluorescence ratio is 0.9702 ± 0.0071.

TGGGCGAGAG was tested. Which switch fluorescence ratio did it give?
Its switch fluorescence ratio is 1.02 ± 0.034.

TGGGCGCCGG was tested. Which switch fluorescence ratio did it give?
Its switch fluorescence ratio is 1 ± 0.013.

For TGGGCGTGTG, which switch fluorescence ratio is on record?
The switch fluorescence ratio was 1.02 ± 0.017.

With TGGGCGTTCT as the sequence, how does the switch fluorescence ratio read?
Its switch fluorescence ratio is 1.03 ± 0.081.

Which switch fluorescence ratio does the source give for TGGGCTATAG here?
The switch fluorescence ratio was 1.03 ± 0.032.

Which switch fluorescence ratio does the source give for TGGGCTATGC here?
The switch fluorescence ratio was 0.986 ± 0.059.

With TGGGCTCCGG as the sequence, how does the switch fluorescence ratio read?
The switch fluorescence ratio was 1 ± 0.031.

For TGGGGAAAAA, which switch fluorescence ratio is on record?
Its switch fluorescence ratio is 1.07 ± 0.11.

Which switch fluorescence ratio does the source give for TGGGGAAACC here?
Its switch fluorescence ratio is 2.35 ± 2.3.

Which switch fluorescence ratio does the source give for TGGGGAAGCG here?
Its switch fluorescence ratio is 0.988 ± 0.011.

With TGGGGAATGT as the sequence, how does the switch fluorescence ratio read?
Its switch fluorescence ratio is 1.01 ± 0.042.

With TGGGGAATTT as the sequence, how does the switch fluorescence ratio read?
The switch fluorescence ratio was 0.987 ± 0.023.

For TGGGGACACT, which switch fluorescence ratio is on record?
Its switch fluorescence ratio is 1.02 ± 0.016.
